Laboratory results: article PMC12011707

B1: wildtype FGF10 (38-208) (ligand)
chain: QALGQDMVSPEATNSSSSSFSSPSSAGRHVRSYNHLQGDVRWRKLFSFTKYFLKIEKNGKVSGTKKENCPYSILEITSVEIGVVAVKAINSNYYLAMNKKGKLYGSKEFNNDCKLKERIEENGYNTYASFNWQHNGRQMYVALNGKGAPRRGQKTRRKNTSAHFLPMVVHS
B2: FGF10-STAB2 (ligand)
chain: QALGQDMVSPEATNSSSSSFSSPSSAGRHVRSYNHLQGDVRIRKLFSFTGYFLKIEPNGKVSGTKKENCPYSILEITSVEIGVVAVKAINSGYYLAMNKKGKLYGSKEFNNDCKLKERIEENGYNTYASFNWRHNGRQMYVALNGKGAPVRGQKTRRKNTSAHFLPMVVHS
B3: FGF10-STAB3 (ligand)
chain: QALGQDMVSPEATNSSSSSFSSPSSAGRHVRSYNHLQGDVRIRKLFSFTGYFLKIEPNGKVSGTKKENCPYSILEITSVEIGVVAVKAINSGYYLAMNKKGKLYGSKEFNNDCKLKERIEENGYNTYASFNWRHNGRQMYVALNGKGAPERGQKTRRKNTSAHFLPMVVHS

Target: human extracellular domain of FGFR2b fused with the Fc domain of IgG1 (human)
Test: BLI; Octet K2; FGFR extracellular domain-Fc immobilised on a protein A biosensor; FGF10 variants in PBS, 31.25 to 250 nM (told for FGFR2b-Fc); association and dissociation 300 s each; KD from fitted saturation binding curves

Binder | Kd
B1 | 764 nM
B2 | 996 nM
B3 | 913 nM
